Data from the supplement of paper PMC5998384.

Columns and labels:
HeLa Kyoto [1] = assay: solubility change mitosis vs G1/S (difference of NP-40 vs SDS log2 ratios) (log2 ratio difference); higher = more soluble in mitosis
HeLa Kyoto [2] = assay: solubility in G1/S (NP-40 vs SDS abundance) (log2 ratio); higher = more soluble; conditions: cell cycle stage: G1/S
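For solubility change mitosis vs G1/S (difference of NP-40 vs SDS log2 ratios) in this document: synchronized HeLa Kyoto cells (double thymidine block for G1/S, nocodazole release for mitosis), protein amounts in NP-40 versus SDS lysates quantified by mass spectrometry, three biological replicates.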
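For solubility in G1/S (NP-40 vs SDS abundance) in this document: HeLa Kyoto cells arrested at G1/S by double thymidine block, proteins quantified by TMT10plex mass spectrometry in mild NP-40 versus SDS extracts, three biological replicates.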

Row | Sequence | solubility change mitosis (log2) (HeLa Kyoto [1]) | solubility in G1/S (log2) (HeLa Kyoto [2])
1 | MKTVLMVAEKPSLAQSIAKILSRGSLSSHKGLNGACSVHEYTGTFAGQPVRFKMTSVCGHVMTLDFLGKYNKWDKVDPAELFSQAPTEKKEANPKLNMVKFLQVEGRGCDYIVLWLDCDKEGENICFEVLDAVLPVMNKAHGGEKTVFRARFSSITDTDICNAMACLGEPDHNEALSVDARQELDLRIGCAFTRFQTKYFQGKYGDLDSSLISFGPCQTPTLGFCVERHDKIQSFKPETYWVLQAKVNTDKDRSLLLDWDRVRVFDREIAQMFLNMTKLEKEAQVEATSRKEKAKQRPLALNTVEMLRVASSSLGMGPQHAMQTAERLYTQGYISYPRTETTHYPENFDLKGSLRQQANHPYWADTVKRLLAEGINRPRKGHDAGDHPPITPMKSATEAELGGDAWRLYEYITRHFIATVSHDCKYLQSTISFRIGPELFTCSGKTVLSPGFTEVMPWQSVPLEESLPTCQRGDAFPVGEVKMLEKQTNPPDYLTEAELITLMEKHGIGTDASIPVHINNICQRNYVTVESGRRLKPTNLGIVLVHGYYKIDAELVLPTIRSAVEKQLNLIAQGKADYRQVLGHTLDVFKRKFHYFVDSIAGMDELMEVSFSPLAATGKPLSRCGKCHRFMKYIQAKPSRLHCSHCDETYTLPQNGTIKLYKELRCPLDDFELVLWSSGSRGKSYPLCPYCYNHPPFRDMKKGMGCNECTHPSCQHSLSMLGIGQCVECESGVLVLDPTSGPKWKVACNKCNVVAHCFENAHRVRVSADTCSVCEAALLDVDFNKAKSPLPGDETQHMGCVFCDPVFQELVELKHAASCHPMHRGGPGRRQGRGRGRARRPPGKPNPRRPKDKMSALAAYFV [TOP3B] | 0.0647 | -0.535
2 | MLEPQENGVIDLPDYEHVEDETFPPFPPPASPERQDGEGTEPDEESGNGAPVRVPPKRTVKRNIPKLDAQRLISERGLPALRHVFDKAKFKGKGHEAEDLKMLIRHMEHWAHRLFPKLQFEDFIDRVEYLGSKKEVQTCLKRIRLDLPILHEDFVSNNDEVAENNEHDVTSTELDPFLTNLSESEMFASELSRSLTEEQQQRIERNKQLALERRQAKLLSNSQTLGNDMLMNTPRAHTVEEVNTDEDQKEESNGLNEDILDNPCNDAIANTLNEEETLLDQSFKNVQQQLDATSRNITEAR [TIPIN] | 0.273 | 0.321
3 | MLFTVSCSKMSSIVDRDDSSIFDGLVEEDDKDKAKRVSRNKSEKKRRDQFNVLIKELGSMLPGNARKMDKSTVLQKSIDFLRKHKEITAQSDASEIRQDWKPTFLSNEEFTQLMLEALDGFFLAIMTDGSIIYVSESVTSLLEHLPSDLVDQSIFNFIPEGEHSEVYKILSTHLLESDSLTPEYLKSKNQLEFCCHMLRGTIDPKEPSTYEYVKFIGNFKSLNSVSSSAHNGFEGTIQRTHRPSYEDRVCFVATVRLATPQFIKEMCTVEEPNEEFTSRHSLEWKFLFLDHRAPPIIGYLPFEVLGTSGYDYYHVDDLENLAKCHEHLMQYGKGKSCYYRFLTKGQQWIWLQTHYYITYHQWNSRPEFIVCTHTVVSYAEVRAERRRELGIEESLPETAADKSQDSGSDNRINTVSLKEALERFDHSPTPSASSRSSRKSSHTAVSDPSSTPTKIPTDTSTPPRQHLPAHEKMVQRRSSFSSQSINSQSVGSSLTQPVMSQATNLPIPQGMSQFQFSAQLGAMQHLKDQLEQRTRMIEANIHRQQEELRKIQEQLQMVHGQGLQMFLQQSNPGLNFGSVQLSSGNSSNIQQLAPINMQGQVVPTNQIQSGMNTGHIGTTQHMIQQQTLQSTSTQSQQNVLSGHSQQTSLPSQTQSTLTAPLYNTMVISQPAAGSMVQIPSSMPQNSTQSAAVTTFTQDRQIRFSQGQQLVTKLVTAPVACGAVMVPSTMLMGQVVTAYPTFATQQQQSQTLSVTQQQQQQSSQEQQLTSVQQPSQAQLTQPPQQFLQTSRLLHGNPSTQLILSAAFPLQQSTFPQSHHQQHQSQQQQQLSRHRTDSLPDPSKVQPQ [CLOCK] | -0.192 | 0.134
4 | MLQKPRNRGRSGGQAERDRDWSHSGNPGASRAGEDARVLRDGFAEEAPSTSRGPGGSQGSQGPSPQGARRAQAAPAVGPRSQKQLELKVSELVQFLLIKDQKKIPIKRADILKHVIGDYKDIFPDLFKRAAERLQYVFGYKLVELEPKSNTYILINTLEPVEEDAEMRGDQGTPTTGLLMIVLGLIFMKGNTIKETEAWDFLRRLGVYPTKKHLIFGDPKKLITEDFVRQRYLEYRRIPHTDPVDYEFQWGPRTNLETSKMKVLKFVAKVHNQDPKDWPAQYCEALADEENRARPQPSGPAPSS [NDNL2] | 0.116 | 0.289
5 | MLRTAMGLRSWLAAPWGALPPRPPLLLLLLLLLLLQPPPPTWALSPRISLPLGSEERPFLRFEAEHISNYTALLLSRDGRTLYVGAREALFALSSNLSFLPGGEYQELLWGADAEKKQQCSFKGKDPQRDCQNYIKILLPLSGSHLFTCGTAAFSPMCTYINMENFTLARDEKGNVLLEDGKGRCPFDPNFKSTALVVDGELYTGTVSSFQGNDPAISRSQSLRPTKTESSLNWLQDPAFVASAYIPESLGSLQGDDDKIYFFFSETGQEFEFFENTIVSRIARICKGDEGGERVLQQRWTSFLKAQLLCSRPDDGFPFNVLQDVFTLSPSPQDWRDTLFYGVFTSQWHRGTTEGSAVCVFTMKDVQRVFSGLYKEVNRETQQWYTVTHPVPTPRPGACITNSARERKINSSLQLPDRVLNFLKDHFLMDGQVRSRMLLLQPQARYQRVAVHRVPGLHHTYDVLFLGTGDGRLHKAVSVGPRVHIIEELQIFSSGQPVQNLLLDTHRGLLYAASHSGVVQVPMANCSLYRSCGDCLLARDPYCAWSGSSCKHVSLYQPQLATRPWIQDIEGASAKDLCSASSVVSPSFVPTGEKPCEQVQFQPNTVNTLACPLLSNLATRLWLRNGAPVNASASCHVLPTGDLLLVGTQQLGEFQCWSLEEGFQQLVASYCPEVVEDGVADQTDEGGSVPVIISTSRVSAPAGGKASWGADRSYWKEFLVMCTLFVLAVLLPVLFLLYRHRNSMKVFLKQGECASVHPKTCPVVLPPETRPLNGLGPPSTPLDHRGYQSLSDSPPGSRVFTESEKRPLSIQDSFVEVSPVCPRPRVRLGSEIRDSVV [SEMA4B] | -0.0944 | 0.234
6 | MLTEASLSIWGWGSLGIVLFLITFGPFVIFYLTFYILCFVGGGLVVTLLFGKTNSEKYLEQCEHSFLPPTSPGVPKCLEEMKREARTIKIDRRLTGANIIDEPLQQVIQFSLRDYVQYWYYTLSDDESFLLEIRQTLQNALIQFATRSKEIDWQPYFTTRIVDDFGTHLRVFRKAQQKITEKDDQVKGTAEDLVDTFFEVEVEMEKEVCRDLVCTSPKDEEGFLRDLCEVLLYLLLPPGDFQNKIMRYFVREILARGILLPLINQLSDPDYINQYVIWMIRDSNCNYEAFMNIIKLSDNIGELEAVRDKAAEELQYLRSLDTAGDDINTIKNQINSLLFVKKVCDSRIQRLQSGKEINTVKLAANFGKLCTVPLDSILVDNVALQFFMDYMQQTGGQAHLFFWMTVEGYRVTAQQQLEVLLSRQRDGKHQTNQTKGLLRAAAVGIYEQYLSEKASPRVTVDDYLVAKLADTLNHEDPTPEIFDDIQRKVYELMLRDERFYPSFRQNALYVRMLAELDMLKDPSFRGSDDGDGESFNGSPTGSINLSLDDLSNVSSDDSVQLHAYISDTVYADYDPYAVAGVCNDHGKTYALYAITVHRRNLNSEEMWKTYRRYSDFHDFHMRITEQFESLSSILKLPGKKTFNNMDRDFLEKRKKDLNAYLQLLLAPEMMKASPALAHYVYDFLENKAYSKGKGDFARKMDTFVNPLRNSMRNVSNAVKSLPDSLAEGMTKMSDNMGKMSERLGQDIKQSFFKVPPLIPKTDSDPEHRRVSAQLDDNVDDNIPLRVMLLLMDEVFDLKERNQWLRRNIKNLLQQLIRATYGDTINRKIVDHVDWMTSPEQVADSVKRFRDAFWPNGILAEAVPCRDKSIRMRTRVAGKTKLLAIMPDELKHIIGAETTRKGILRVFEMFQHNQLNRRMVYVFLEGFLETLFPQYKFRELFNKLHSRSKQMQKYKQKLQTTQAPSLQKR [SNX13] | -0.0268 | -0.221
7 | MLWLALGPFPAMENQVLVIRIKIPNSGAVDWTVHSGPQLLFRDVLDVIGQVLPEATTTAFEYEDEDGDRITVRSDEEMKAMLSYYYSTVMEQQVNGQLIEPLQIFPRACKPPGERNIHGLKVNTRAGPSQHSSPAVSDSLPSNSLKKSSAELKKILANGQMNEQDIRYRDTLGHGNGGTVYKAYHVPSGKILAVKVILLDITLELQKQIMSELEILYKCDSSYIIGFYGAFFVENRISICTEFMDGGSLDVYRKMPEHVLGRIAVAVVKGLTYLWSLKILHRDVKPSNMLVNTRGQVKLCDFGVSTQLVNSIAKTYVGTNAYMAPERISGEQYGIHSDVWSLGISFMELALGRFPYPQIQKNQGSLMPLQLLQCIVDEDSPVLPVGEFSEPFVHFITQCMRKQPKERPAPEELMGHPFIVQFNDGNAAVVSMWVCRALEERRSQQGPP [MAP2K5] | -0.109 | 0.128
8 | MMKKKKFKFKVDFELEELSSVPFVNGVLFCKMRLLDGGSFTAESSREVVQANCVRWRKKFSFMCKMSASAATGILDPCIYRVSVRKELKGGKAYAKLGFADLNLAEFAGSGNTTRRCLLEGYDTKNTRQDNSILKVLISMQLMSGDPCFKTPPSTSMSIPIAGESESLQEDRKGGETLKVHLGIADLSAKSASVPDELGACGHSRTSSYASQQSKVSGYSTCHSRSSSFSELCHRRNTSVGSTSTGVESILEPCDEIEQKIAEPNLDTADKEDTASEKLSRCPVKQDSVESQLKRVDDTRVDADDIVEKILQSQDFSLDSSAEEEGLRLFVGPGGSTTFGSHHLPNRVGSGAYEQVVIKR [FAM102B] | 0.0662 | -0.233
9 | MMWRPSVLLLLLLLRHGAQGKPSPDAGPHGQGRVHQAAPLSDAPHDDAHGNFQYDHEAFLGREVAKEFDQLTPEESQARLGRIVDRMDRAGDGDGWVSLAELRAWIAHTQQRHIRDSVSAAWDTYDTDRDGRVGWEELRNATYGHYAPGEEFHDVEDAETYKKMLARDERRFRVADQDGDSMATREELTAFLHPEEFPHMRDIVIAETLEDLDRNKDGYVQVEEYIADLYSAEPGEEEPAWVQTERQQFRDFRDLNKDGHLDGSEVGHWVLPPAQDQPLVEANHLLHESDTDKDGRLSKAEILGNWNMFVGSQATNYGEDLTRHHDEL [RCN3] | 0.262 | 0.0765
10 | MNDISQKAEILLSSSKPVPKTYVPKLGKGDVKDKFEAMQRAREERNQRRSRDEKQRRKEQYIREREWNRRKQEIKEMLASDDEEDVSSKVEKAYVPKLTGTVKGRFAEMEKQRQEEQRKRTEEERKRRIEQDMLEKRKIQRELAKRAEQIEDINNTGTESASEEGDDSLLITVVPVKSYKTSGKMKKNFEDLEKEREEKERIKYEEDKRIRYEEQRPSLKEAKCLSLVMDDEIESEAKKESLSPGKLKLTFEELERQRQENRKKQAEEEARKRLEEEKRAFEEARRQMVNEDEENQDTAKIFKGYRPGKLKLSFEEMERQRREDEKRKAEEEARRRIEEEKKAFAEARRNMVVDDDSPEMYKTISQEFLTPGKLEINFEELLKQKMEEEKRRTEEERKHKLEMEKQEFEQLRQEMGEEEEENETFGLSREYEELIKLKRSGSIQAKNLKSKFEKIGQLSEKEIQKKIEEERARRRAIDLEIKEREAENFHEEDDVDVRPARKSEAPFTHKVNMKARFEQMAKAREEEEQRRIEEQKLLRMQFEQREIDAALQKKREEEEEEEGSIMNGSTAEDEEQTRSGAPWFKKPLKNTSVVDSEPVRFTVKVTGEPKPEITWWFEGEILQDGEDYQYIERGETYCLYLPETFPEDGGEYMCKAVNNKGSAASTCILTIESKN [NEXN] | 0.21 | -0.858
